Data as given in publication PMC11677393 (International Journal of Molecular Sciences, 2024).

Key:
[1] = target: the molecule itself; assay: crystal structure; apo GLI1(234–302), no DNA; sitting drop, 29–32% PEG3350, 0.1 M Bis-Tris pH 6.5; two molecules in the asymmetric unit, space group P65, 2.05 Å
[2] = target: the molecule itself; assay: SEC; Superdex 75 during purification; 20 mM HEPES pH 7.6, 500 mM NaCl, 0.1 mM TCEP; elution compared with standard proteins

Protein	binding result [1]	stoichiometry N [2]
Human GLI1 truncation containing zinc finger motif 1 and 2 (residue 234–302) (domain or fragment, TEV protease was used to remove His-SUMO; Two zinc ions per chain; also called GLI1 Zif1-2; source: E. coli Rosetta pLysS, purified (Ni-NTA, TEV cleavage, glutathione column, HiTrap Q HP, Superdex 75); not shown: His6, N-terminal, cleaved; SUMO (yeast SMT3), N-terminal, cleaved) ETDCRWDGCSQEFDSQEQLVHHINSEHIHGERKEFVCHWGGCSRELRPFKAQYMLVVHMRRHTGEKPHK	binds	
GLI1(234–326) (domain or fragment, human, UniProt P08151 234-326, looked up, a few residues of the TEV site and linker may remain at the N-terminus (surmised); also called Zif truncation with 3 Zif motifs; not shown: His6, N-terminal, cleaved; SUMO (yeast SMT3), N-terminal, cleaved) ETDCRWDGCSQEFDSQEQLVHHINSEHIHGERKEFVCHWGGCSRELRPFKAQYMLVVHMRRHTGEKPHKCTFEGCRKSYSRLENLKTHLRSHT		2
GLI1(234–358) (domain or fragment, a few residues of the TEV site and linker may remain at the N-terminus (surmised); also called Zif truncation with 4 Zif motifs; not shown: His6, N-terminal, cleaved; SUMO (yeast SMT3), N-terminal, cleaved) not shown		2
GLI1(234–388) (domain or fragment, human, UniProt P08151 234-388, looked up, a few residues of the TEV site and linker may remain at the N-terminus (surmised); PDB 2GLI is the cited structure of GLI1 Zif1-5 with DNA; also called Zif truncation with 5 Zif motifs; Zif1-5; not shown: His6, N-terminal, cleaved; SUMO (yeast SMT3), N-terminal, cleaved) ETDCRWDGCSQEFDSQEQLVHHINSEHIHGERKEFVCHWGGCSRELRPFKAQYMLVVHMRRHTGEKPHKCTFEGCRKSYSRLENLKTHLRSHTGEKPYMCEHEGCSKAFSNASDRAKHQNRTHSNEKPYVCKLPGCTKRYTDPSSLRKHVKTVHG		2
